Legend:
M082 cells = experiment: Patient-derived low passage melanoma culture viability assay; format: cell-based, human; conditions: ADC 8 days
M016 cells = experiment: as above; format: cell-based, human; conditions: ADC 8 days
A875 cells = experiment: Melanoma cell line viability assay (CellTiter-Glo); format: cell-based, human; conditions: ADC 1×10^−4 to 10 μg/mL, 5 days
A375R cells = experiment: Melanoma cell line viability assay (CellTiter-Glo); format: cell-based, human; conditions: ADC 1×10^−4 to 10 μg/mL, 5 days
SKMEL147 cells = experiment: Melanoma cell line viability assay (CellTiter-Glo); format: cell-based, human; conditions: ADC 1×10^−4 to 10 μg/mL, 5 days
SKMEL28R cells = experiment: Melanoma cell line viability assay (CellTiter-Glo); format: cell-based, human; conditions: ADC 1×10^−4 to 10 μg/mL, 5 days
SKMEL28 cells = experiment: Melanoma cell line viability assay (CellTiter-Glo); format: cell-based, human; conditions: ADC 1×10^−4 to 10 μg/mL, 5 days
M019R cells = experiment: Patient-derived low passage melanoma culture viability assay; format: cell-based, human; conditions: ADC 8 days
PC9-ER cells = experiment: In vitro cytotoxicity assay, erlotinib-resistant NSCLC cell line; format: cell-based, human
LCLC-103H cells = conditions: 5 days
A431 tumors = experiment: Therapeutic A431 xenograft model; format: in vivo, SCID mice; conditions: 3 mg/kg intraperitoneally, model produces high levels of Gas6
Description: (§1) Tumor induction was performed by subcutaneous injection of 5×10^6 A431 or LCLC-103H tumor cells (both obtained from Leibniz-Institut—Deutsche Sammlung von Mikroorganismen and Zellkulturen GmbH (DSMZ)) in 200 μL PBS in the right flank of female SCID mice. Treatment was started 14-21 days after tumor cell inoculation, when the average tumor size was >100-200 mm^3 and distinct tumor growth was observed. Mice received a single injection or a total of 4 biweekly intraperitoneal injections with IgG1-AXL-vcMMAE ADCs or control antibody (unconjugated IgG1-b12), as indicated. Tumor volume was determined at least two times per week. Tumor volumes (mm^3) were calculated from caliper (PLEXX) measurements as: 0.52×(length)×(width)2.

PAXF1657 tumors = experiment: PAXF1657 pancreas cancer PDX model; format: in vivo, NMRI nu/nu mice
Description: Human pancreas tumor tissue was subcutaneously implanted in the left flank of 5-7 weeks old female NMRI nu/nu mice. […] At day of randomization (day 0), the 3 ADCs were dosed intravenously (i.v.) at either 4 mg/kg or 2 mg/kg, and the control group received a single dose of IgG1-b12 (4 mg/kg). Tumor volumes (mm^3) were monitored twice weekly and were calculated from caliper (PLEXX) measurements as: 0.52×(length)×(width)^2.

MDA-MB231 cells = conditions: MDA-MB231 (n = 2), 5 days
[1] = tested on: LCLC-103H xenograft tumors; experiment: Therapeutic LCLC-103H xenograft model; format: in vivo, SCID mice
Description: 5×10^6 LCLC-103H (large cell lung carcinoma) tumor cells (obtained from Leibniz-Institut DSMZ-Deutsche Sammlung von Mikroorganismen and Zellkulturen GmbH (DSMZ)) in 200 μL PBS were injected subcutaneously in the right flank of female SCID mice. Starting 14-21 days after tumor cell inoculation, when the average tumor size was >100-200 mm^3 and distinct tumor growth was observed, a single injection with 1 mg/kg (20 μg/mouse) IgG1-AXL-vcMMAE antibodies (as described in Supplementary Example 1) or control (unconjugated IgG1-b12) was given intraperitoneally (100 μL/mouse). Tumor volume was determined at least two times per week. Tumor volumes (mm^3) were calculated from caliper (PLEXX) measurements as: 0.52×(length)×(width)^2.
as §1

A431 cells = conditions: A431 (n = 3), 5 days
CEXF 773 tumors = experiment: Cervix carcinoma PDX model CEXF 773; format: in vivo, NMRI nu/nu mice; conditions: 4 mg/kg i.v. on day 0 and day 7
Description: The anti-tumor activity of IgG1-AXL-183-vcMMAE and IgG1-AXL-726-vcMMAE was evaluated in the patient derived cervix carcinoma xenograft CEXF 773 model in NMRI nu/nu mice (Harlan, Netherlands). Experiments were performed by Oncotest (Freiburg, Germany).
Tumor fragments were obtained from xenografts in serial passage in nude mice. After removal from donor mice, tumors were cut into fragments (4-5 mm diameter) and placed in PBS (with 10% penicillin/streptomycin) until subcutaneous implantation. Mice under isofluorane anesthesia received unilateral, subcutaneous tumor implants in the flank. Tumors were allowed to grow until the tumor volume was 50-250 mm^3.
The treatment groups were: IgG1-b12, IgG1-b12-vcMMAE, IgG1-AXL-183-vcMMAE and IgG1-AXL-726-vcMMAE. The antibodies and ADCs were dosed intravenously (i.v.) at 4 mg/kg on the day of randomization (day 0) and on day 7. Tumor volumes (mm^3) were monitored twice weekly and were calculated from caliper (PLEXX) measurements as: 0.52×(length)×(width)^2.

MDA-MB-231 tumors = experiment: Orthotopic MDA-MB-231-luc D3H2LN breast cancer xenograft model; format: in vivo, SCID mice; conditions: 4 biweekly doses of 3 mg/kg
Description: The anti-tumor activity of IgG1-AXL-183-vcMMAE and IgG1-AXL-726-vcMMAE was evaluated in an orthotopic MDA-MB-231 D3H2LN xenograft model.
MDA-MB-231-luc D3H2LN Bioware cells (mammary gland adenocarcinoma; Perkin Elmer, Waltham, Mass.) were implanted in the mammary fat pad of 6-11 week old, female SCID (C.B-17/IcrPrkdc-scid/CRL) mice (Charles-River) under isofluorane anesthesia. Tumors were allowed to grow and mice were randomized when tumors reached a volume of ^˜325 mm^3. […] The treatment groups were: IgG1-b12, IgG1-b12-vcMMAE, IgG1-AXL-183-vcMMAE and IgG1-AXL-726-vcMMAE. The animals received a total of 4 biweekly doses of 3 mg/kg antibody or ADC starting at the day of randomization. Tumor volumes (mm^3) were monitored twice weekly and were calculated from caliper (PLEXX) measurements as: 0.52×(length)×(width)^2.

[2] = Example 13: 3 mg/kg intraperitoneally

Question: Which results are given for `CCCS(=O)(=O)Nc1ccc(F)c(C(=O)c2c[nH]c3ncc(Cl)cc23)c1F` [PLX4720, N-(3-(5-chloro-1H-pyrrolo[2,3-b]pyridine-3-carbonyl)-2,4-difluorophenyl)propane-1-sulfonamide, reference compound]?
Answer: sensitivity of the culture to the substance (M082 cells): resistant; sensitivity of the culture to the substance (M016 cells): resistant; sensitivity of the cell line to the substance (A875 cells): sensitive; sensitivity of the cell line to the substance (A375R cells): resistant; sensitivity of the cell line to the substance (SKMEL147 cells): resistant; sensitivity of the cell line to the substance (SKMEL28R cells): resistant; sensitivity of the cell line to the substance (SKMEL28 cells): sensitive; sensitivity of the culture to the substance (M019R cells): resistant

Question: How did the “sensitivity of the cell line (cell viability)” value (PC9-ER cells) turn out when `C#Cc1cccc(Nc2ncnc3cc(OCCOC)c(OCCOC)cc23)c1` [erlotinib, reference compound] was run?
Answer: acquired resistance

B1: IgG1-AXL-148-vcMMAE: IgG1-AXL-148 conjugated at cysteines to vcMMAE (conjugate)
VH: EVQLLESGGGLVQPGGSLRLSCAASGFTFSSYAMTWVRQAPGKGLEWVSAISISGGSTFYADSVKGRFTISRDNSKNTLYLQMNSLRAEDTAVYYCRGYSGYVYDAFDFWGQGTMVTVSS
VL: DIQMTQSPSSLSASVGDRVTITCRASQGISNWLAWYQQKPEKAPKSLIYAASSLQSGVPSRFSGSGSGTDFTLTISSLQPEDFATYYCQQYNSYPLTFGGGTKVEIK
Question: With B1 as the molecule, how does the “Cytotoxicity EC50” value (LCLC-103H cells) read?
Answer: 0.012 µg/mL

Question: What about the anti-tumor activity (A431 tumors) of the same molecule?
Answer: induced growth inhibition

Question: What about the anti-tumor activity (PAXF1657 tumors; 2 mg/kg i.v. at day 0) of the same molecule?
Answer: significantly reduced the growth

Question: What about the anti-tumor activity (PAXF1657 tumors; 4 mg/kg i.v. at day 0) of the same molecule?
Answer: induced tumor regression

Question: What about the anti-tumor activity (PAXF1657 tumors; dose not stated in the sentence (FIG. 10B, 10C)) of the same molecule?
Answer: dose-dependent antitumor activity

Question: What about the “Cytotoxicity EC50 Mean” value (MDA-MB231 cells) of the same molecule?
Answer: 0.012 µg/mL

Question: What about the anti-tumor activity ([1]; Example 9: single injection 1 mg/kg intraperitoneally) of the same molecule?
Answer: induced tumor regression

Question: And the anti-tumor activity [1, 2]?
Answer: induced tumor regression

Question: And the “Cytotoxicity EC50 Mean” value (A431 cells)?
Answer: 0.070 µg/mL

B2: IgG1-AXL-726-vcMMAE: IgG1-AXL-726 (FN2-binder) conjugated to vcMMAE (conjugate)
VH: QVQLQQWGAGLLKPSETLSLTCAIDGGSFSGYYWSWIRQPPGKGLEWIGEISHSGRTNYNPSLKSRVTISIDTSKNQFSLKLSSVAAADTAVYYCARFITMIRGAIITHFDYWGQGALVTVSS
VL: DIQMTQSPSSLSASVGDRVTITCRASQGISSWLAWYQQKPEKAPKSLIYAASSLQSGVPSRFSGSGSGTDFTLTISSLQPEDFATYYCQQYHSYPYTFGQGTKLEIK
Question: B2 was tested. Which anti-tumor activity (CEXF 773 tumors) did it give?
Answer: induced tumor regression

Question: What about the anti-tumor activity (A431 tumors) of the same molecule?
Answer: induced growth inhibition

Question: And the anti-tumor activity (MDA-MB-231 tumors)?
Answer: induced tumor regression

Question: And the anti-tumor activity [1, 2]?
Answer: induced tumor regression

B3: IgG1-AXL-183-vcMMAE: IgG1-AXL-183 (FN1-binder) conjugated to vcMMAE (conjugate)
VH: QVQLQQWGAGLLKPSETLSLTCAVYGGSFSGYYWSWIRQPPGKGLEWIGEINQSGSTNYNPSLKSRVTISVDTSKNQFSLKLSSVTAADTSVYYCASGNWDHFFDYWGQGTLVTVSS
VL: DIQMTQSPSSVSASVGDRVTITCRASQGISSWLAWYQHKPGKAPKLLIYATSSLQSGVTSRFSGSGSGTDFTLTISSLQPEDFATYYCQQAKSFPWTFGQGTKVEIK
Question: Which anti-tumor activity (CEXF 773 tumors) does the source give for B3 here?
Answer: induced tumor regression

Question: What about the anti-tumor activity (A431 tumors) of the same molecule?
Answer: induced growth inhibition

Question: What about the anti-tumor activity (MDA-MB-231 tumors) of the same molecule?
Answer: induced tumor regression

Question: What about the anti-tumor activity [1, 2] of the same molecule?
Answer: induced tumor regression
